Like-named read-outs stand apart in the source and are kept apart here.
Experiments:
[1] = biological target: porcine CD80 on the porcine CD80-expressing B-cell lymphoma cell line LCL13271-5E4 (porcine)
[2] = biological target: porcine CD80 on the porcine CD80-expressing B-cell lymphoma cell line LCL13271-5E4 (porcine); assay: cell-based or functional assay
[3] = biological target: porcine CD80 on the porcine CD80-expressing B-cell lymphoma cell line LCL13271-5E4 (porcine); assay: flow cytometry on LCL13271-5E4 cells, MFI against concentration of biotinylated fusion toxin, non-linear least-squares fit

| Substance | Kd [1] [nM] | protein synthesis inhibition (3H-leucine incorporation) in LCL13271-5E4 cells [2] | Kd [3] [nM] |
| --- | --- | --- | --- |
| DT390-bi-pCTLA-4-Non-N-Gly-6xHis (bi-non-N-glycosylated soluble porcine CTLA-4 fusion toxin) | 4.7 | – | – |
| DT390-pCTLA4-Non-N-Gly-6xHis (single non-N-glycosylated soluble porcine CTLA-4 fusion toxin) | 2 | 0.33 | – |
| DT390-pCTLA-4-Gly-6xHis (single glycosylated soluble porcine CTLA-4 fusion toxin) | – | 0.67 | 17.3 |
